Experimental findings from patent US7265263B1, “Potato transcription factors, methods of use thereof, and a method for enhancing tuber development” (Iowa State University Research Foundation, Inc., priority 2002, dated 2007) are described below.

Experiment [1] has as its system potato ga20ox1 promoter (P1, P2, P3) and first intron. As to the kind of experiment: Gel retardation assay with ga20ox1 promoter regions and first intron. It is filed as binding. The text has this:
The first intron with partial flanking exon sequence (450 bp) of potato ga20ox1 and its promoter (981 bp, provided by Dr. Salomé Prat, CSIC Cantoblanco Campus, Univ. of Madrid, Spain) were used for gel mobility shift assays. Polymerase chain reaction (PCR) was used to amplify three regions of the promoter: -981 to 636 (P1), -660 to 307 (P2), and -331 to 0 (P3). About a 25-bp overlap was maintained between P1 and P2 or P2 and P3 in the chance that the protein-binding site would span the overlapped region. The first intron of this gene was amplified from potato genomic DNA by using PCR and the oligos 5′-[…]-3′ (SEQ ID NO:21) and 5′-[…]-3′ (SEQ ID NO:22) as primers. These primers were designed based on the site of the first intron of the tobacco GA20 oxidase gene Ntc12. The four fragments were purified on a 1.4% agarose gel and labeled with α^32P-dATP using Klenow fragment. […]
In the competition assays, unlabeled double-stranded DNA fragments (10×, 25×, 50×, 100×) were incubated with the recombinant protein before the addition of the radioactive probe. The dissociation rates were determined by adding 500-fold more cold DNA fragments to the DNA-binding reactions that were being incubated on ice, and loaded onto the running gel every 10 minutes. […]

Another experiment has as its system ga20ox1 promoter. As to the kind of experiment: Transcription assay, GUS reporter driven by ga20ox1 promoter in tobacco protoplasts. It is filed as cell-based, potato. The source says:
The cauliflower mosaic virus (CaMV) 35S promoter in pBI221 (Clontech, Palo Alto, Calif.) was replaced by an enhancer fragment (-832 to -50) of the 35S promoter plus 980 bp of the ga20ox1 promoter to generate the pGAOP::β-glucuronidase (GUS) reporter construct. With this construct, the reporter GUS transcription level is augmented but its transcription may still be affected by the ga20ox1 promoter. A CaMV 35S promoter-driven luciferase (LUC) construct 35S-LUC (obtained from Dr. Takahashi, Dept. of Biological Sciences, Graduate School of Science, Univ. of Tokyo, Japan) was used as an internal control. Effector constructs were also generated by using pBI221 vector as a backbone, with the GUS gene replaced by the full-length cDNAs of either StBEL-05 or POTH1, downstream of the CaMV 35S promoter. Truncated cDNAs that encode the N-terminal protein-binding domains of StBEL-05 or POTH1 were used to generate the dominant negative constructs, StBEL5ΔC295 and POTH1ΔC122, respectively. The reporter construct with the mutated promoter was generated by site-directed PCR mutagenesis with oligos 5′-CTATTTGACTTC*ACACGGTTATTT-3′ (SEQ ID NO:23) and 5′-AAATAACCGTGTG*AAGTCAAATAG-3′ (SEQ ID NO:24).
Fully expanded leaves from three- to four-week-old tobacco plants were excised and placed in K3 basal media (Kao et al., “Nutritional Requirements for Growth of Vicia hajastana Cells and Protoplasts at a Very Low Density in Liquid Media,” Planta 126:105-110 (1975), which is hereby incorporated by reference in its entirety) supplemented with 0.4 M sucrose, 0.25% (w-v) cellulases (Karlan Research Products, Santa Rosa, CA), and 0.05% (w-v) macerases (Calbiochem, La Jolla, Calif.) and incubated for overnight at 28° C. After incubation, the liberated protoplasts were filtered through sterile cheesecloth into a Babcock bottle, and centrifuged for 10 minutes at 1000 rpm. Protoplasts were collected from the bottleneck area and washed once in K3 media with 0.4 M sucrose and resuspended in K3 media containing 0.4 M glucose to a final concentration of 4×10^6 protoplasts per milliliter. […]
(§1) Luciferase assays were performed by injecting 100-μL luciferase substrate (Promega, Madison, Wis.) into 20 μL of extract and measuring the emitted photons for 15 seconds in a TD-20 luminometer (Turner Designs, Sunnyvale, Calif.). […] A fluorescence multiwell plate reader, Fluoroskan II (MTX labs, Vienna, Va.), was used to measure GUS activity at 365 nm (excitation) and 455 nm (emission). Each sample was measured three times for both LUC and GUS activity. Relative GUS-LUC activity was calculated by dividing the ratio of GUS activity to LUC activity from different effectors with the ratio from reporter plasmid alone. Relative activities calculated from three transfection replications were presented as a mean±SE.

The test system of the next experiment is POTH1. As to the kind of experiment: In vitro binding assay (immunoprecipitation) with POTH1. Conditions: in vitro. On the set-up: species or system Solanum tuberosum. The method, then:
In vitro binding experiments were performed as described by Ni et al., “PIF3, a Phytochrome-Interacting Factor Necessary for Normal Photoinduced Signal Transduction, is a Novel Basic Helix-Loop-Helix Protein,” Cell 95:657-667 (1998), which is hereby incorporated by reference in its entirety. The full-length sequence for POTH1 was cloned into a pET17b/GAD fusion cassette and transcribed under the control of the T7 promoter. […] Each 50 μl TnT reaction contained 2.0 μg of template plasmid DNA and 20 μmol (20 μCi) of labeled ^35S-methionine. The POTH1:GAD/BEL complex was immunoprecipitated with anti-GAD antibodies (Santa Cruz Biotechnology, Calif.). The proteins from the pellet (one-half the fraction) and for the prey (one-fourth of the reaction volume) were resolved on a 10% SDS-PAGE gel and visualized by autoradiography.

The test system of a further experiment is CaMV 35S promoter. As to the kind of experiment: Transcription assay, GUS reporter driven by CaMV 35S promoter in tobacco protoplasts. It is filed as cell-based, cauliflower mosaic virus. The method, then: FIGS. 24A-C show schematics of constructs (FIG. 24A) and the repression effect of StBEL-05 and POTH1 on the ga20ox1 promoter (FIG. 24B) and on the 35S CaMV promoter (FIG. 24C). The construct with the LUC gene under the control of the cauliflower mosaic virus (CaMV) 35S promoter was used as an internal control. Each transfection was performed three times. Relative GUS-LUC activity was calculated with reporter alone set as 100%. Data are means±SE.
For each transfection analysis, 700 μL of tobacco protoplasts (prepared as described above) were mixed with 30 μL 2 M KCl and plasmid DNA in an electroporation cuvette with 0.4-cm electrode gap. […]
as §1

B1: POTH1: KNOX transcription factor of potato, SEQ ID NO:17, 345 residues (protein, listed as Solanum tuberosum)
chain: MDDEMYGFHSTRDDYADKALMSPENLMMQTEYNNFHNYTNSSILTSNPMMFGSDDIQLSSEQTNSFSTMTLQNNDNIYQIRSGNCGGGSGSGGSSKDHNDNNNNNEDYDEDGSNVIKAKIVSHPYYPKLLNAYIDCQKVGAPAGIVNLLEEIRQQTDFRKPNATSICIGADPELDEFMETYCDILLKYKSDLSRPFDEATTFLNKIEMQLGNLCKDDGGVSSDEELSCGEADASMRSEDNELKDRLLRKFGSHLSSLKLEFSKKKKKGKLPKEARQMLLAWWDDHFRWPYPTEADKNSLAESTGLDPKQINNWFINQRKRHWKPSENMQLAVMDNLSSQFFSSDD
B1: in experiment [1], the “binding to ga20ox1 regulatory regions (mobility shift)” value is listed as “only formed a complex with P1”. The “relative GUS-LUC activity of the pGAOP::GUS reporter construct” value with ga20ox1 promoter (co-transfected effector, reporter alone = 100%) is on record as “decreased by more than half”. Moreover, the “repression of promoter activity, reporter with point mutation in the binding site” value in the experiment with ga20ox1 promoter (mutated ga20ox1 promoter) is given as “no detectable repression”. The homodimer formation result in the experiment on POTH1 is “did not form homodimers in vitro”. For the same molecule, the “effect on the activity of the CaMV 35S promoter” value in the experiment with CaMV 35S promoter is reported as “Neither StBEL-05 nor POTH1 showed any effect”.
